Experimental data as given in publication PMC9177701, “Taf2 mediates DNA binding of Taf14” (Nature Communications, 2022).
Ends that are not written are not given here. * marks the point of attachment. Crotonyl(E) = C/C=C/C(=O)*

Assays:
[1] = test system: Taf14dYEATS (Saccharomyces cerevisiae); experiment: EMSA; conditions: EMSA: 20-25 mM Tris-HCl pH 7.5, 100-150 mM NaCl, 0.2 mM EDTA (+20% glycerol for NCP), 4 °C 10 min, 0.25 pmol/lane; NMR: 50 mM Tris pH 6.6-7.5, 150 mM NaCl or …
[2] = test system: Taf14dET (Saccharomyces cerevisiae); experiment: EMSA; conditions: EMSA: 20-25 mM Tris-HCl pH 7.5, 100-150 mM NaCl, 0.2 mM EDTA (+20% glycerol for NCP), 4 °C 10 min, 0.25 pmol/lane; NMR: 50 mM Tris pH 6.6-7.5, 150 mM NaCl or …
[3] = target: FAM-labeled Taf2CT peptide (S. cerevisiae) (UniProt P23255); experiment: MST; FAM-labeled Taf2CT peptide kept at 20 nM, Taf14ET varied; 20 mM Tris-HCl pH 7.5, 150 mM NaCl, 0–0.2 mM TCEP; Monolith NT.115; n = 3
[4] = target: His-Taf14ET (S. cerevisiae) (UniProt P35189); experiment: MST; His-tagged Taf14 protein labeled with RED-tris-NTA kept at 20 nM, unlabeled peptide added stepwise; 20 mM Tris-HCl pH 7.5, 150 mM NaCl, 0–0.2 mM TCEP; Monolith NT.115; n = 2 or 3
[5] = target: T1, Taf14FL (full-length Taf14, aa 1–244) (S. cerevisiae, UniProt P35189 1-244); experiment: NMR titration; 1H,15N HSQC of 0.1–0.3 mM uniformly 15N-labeled Taf14 protein, unlabeled peptide added; 298 K; 50 mM Tris-HCl pH 6.6–7.5, 150 mM NaCl, 0–5 mM DTT or 0.2 mM TCEP, or 1x PBS pH 6.6–7.5; conditions: both partners purified
T1 construct: Taf14 (transcription initiation factor subunit 14), S. cerevisiae, aa 1–244, a 244-residue protein; In the EMSAs (functional rows) GST-Taf14 or Taf14 proteins were used; source: E. coli Rosetta-2 (DE3) pLysS, purified (SEC for cross-linking; 15N-labeled for NMR)
T1 sequence (looked up): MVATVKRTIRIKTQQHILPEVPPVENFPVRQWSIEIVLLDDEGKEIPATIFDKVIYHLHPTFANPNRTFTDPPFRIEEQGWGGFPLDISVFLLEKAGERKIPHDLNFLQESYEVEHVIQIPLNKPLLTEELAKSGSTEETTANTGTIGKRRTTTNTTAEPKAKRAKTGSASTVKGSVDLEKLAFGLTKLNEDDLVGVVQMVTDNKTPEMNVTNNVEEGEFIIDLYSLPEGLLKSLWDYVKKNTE

[6] = target: T2, His-Taf14FL (S. cerevisiae, UniProt P35189 1-244); experiment: MST; His-tagged Taf14 protein labeled with RED-tris-NTA kept at 20 nM, unlabeled peptide added stepwise; 20 mM Tris-HCl pH 7.5, 150 mM NaCl, 0–0.2 mM TCEP; Monolith NT.115; n = 2 or 3; conditions: both partners purified
T2 construct: Taf14, S. cerevisiae, aa 1–244; Labelled on the His tag with the His-Tag Labeling Kit RED-tris-NTA (2nd Generation) for MST; source: E. coli Rosetta-2 (DE3) pLysS, purified (Ni-NTA, SEC)
T2 sequence (looked up): T1 sequence (looked up)

[7] = target: T3, His-Taf14_(YEATS) (S. cerevisiae, UniProt P35189 1-137); experiment: as above; conditions: both partners purified
T3 construct: Taf14, S. cerevisiae, YEATS domain, aa 1–137; Labelled on the His tag with the His-Tag Labeling Kit RED-tris-NTA (2nd Generation) for MST; source: E. coli Rosetta-2 (DE3) pLysS, purified (Ni-NTA, SEC)
T3 sequence (looked up): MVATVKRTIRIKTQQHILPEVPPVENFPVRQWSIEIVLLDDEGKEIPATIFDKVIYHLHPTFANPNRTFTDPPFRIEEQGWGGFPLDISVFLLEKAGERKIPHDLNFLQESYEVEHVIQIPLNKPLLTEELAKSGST

[8] = target: T4, Taf14_(YEATS) (YEATS domain of Taf14, aa 1–137) (S. cerevisiae, UniProt P35189 1-137, uniformly 15N-labeled); experiment: NMR titration; 1H,15N HSQC of 0.1–0.3 mM uniformly 15N-labeled Taf14 protein, unlabeled peptide added; 298 K; 50 mM Tris-HCl pH 6.6–7.5, 150 mM NaCl, 0–5 mM DTT or 0.2 mM TCEP, or 1x PBS pH 6.6–7.5; conditions: both partners purified
T4 construct: Taf14, S. cerevisiae, YEATS domain, aa 1–137; source: E. coli Rosetta-2 (DE3) pLysS, minimal media with 15NH4Cl, purified
T4 sequence (looked up): T3 sequence (looked up)

[9] = target: Taf14FL (Saccharomyces cerevisiae, UniProt P35189 1-244); experiment: EMSA; EMSA: 20-25 mM Tris-HCl pH 7.5, 100-150 mM NaCl, 0.2 mM EDTA (+20% glycerol for NCP), 4 °C 10 min, 0.25 pmol/lane; NMR: 50 mM Tris pH 6.6-7.5, 150 mM NaCl or 1x PBS, 298 K; conditions: protein: recombinant; 15N-labelled for NMR; 5' overhang 1 nt (extra T on strand 2 as printed)
[10] = target: Taf14FL;Taf2CT (Saccharomyces cerevisiae;Saccharomyces …, UniProt P35189;P23255 1-244;1392-1402, |); experiment: EMSA; Taf14:Taf2CT 1:10; augmented vs Taf14FL alone; EMSA: 20-25 mM Tris-HCl pH 7.5, 100-150 mM NaCl, 0.2 mM EDTA (+20% glycerol for NCP), 4 °C 10 min, 0.25 pmol/lane; NMR: 50 mM Tris pH 6.6-7.5, 150 mM NaCl or 1x PBS, 298 K; conditions: 15N-labelled for NMR;; 5' overhang 1 nt (extra T on strand 2 as printed)

Chain of FAM-labeled Taf2CT peptide (S. cerevisiae) (P23255 whole entry, looked up, tested part not stated): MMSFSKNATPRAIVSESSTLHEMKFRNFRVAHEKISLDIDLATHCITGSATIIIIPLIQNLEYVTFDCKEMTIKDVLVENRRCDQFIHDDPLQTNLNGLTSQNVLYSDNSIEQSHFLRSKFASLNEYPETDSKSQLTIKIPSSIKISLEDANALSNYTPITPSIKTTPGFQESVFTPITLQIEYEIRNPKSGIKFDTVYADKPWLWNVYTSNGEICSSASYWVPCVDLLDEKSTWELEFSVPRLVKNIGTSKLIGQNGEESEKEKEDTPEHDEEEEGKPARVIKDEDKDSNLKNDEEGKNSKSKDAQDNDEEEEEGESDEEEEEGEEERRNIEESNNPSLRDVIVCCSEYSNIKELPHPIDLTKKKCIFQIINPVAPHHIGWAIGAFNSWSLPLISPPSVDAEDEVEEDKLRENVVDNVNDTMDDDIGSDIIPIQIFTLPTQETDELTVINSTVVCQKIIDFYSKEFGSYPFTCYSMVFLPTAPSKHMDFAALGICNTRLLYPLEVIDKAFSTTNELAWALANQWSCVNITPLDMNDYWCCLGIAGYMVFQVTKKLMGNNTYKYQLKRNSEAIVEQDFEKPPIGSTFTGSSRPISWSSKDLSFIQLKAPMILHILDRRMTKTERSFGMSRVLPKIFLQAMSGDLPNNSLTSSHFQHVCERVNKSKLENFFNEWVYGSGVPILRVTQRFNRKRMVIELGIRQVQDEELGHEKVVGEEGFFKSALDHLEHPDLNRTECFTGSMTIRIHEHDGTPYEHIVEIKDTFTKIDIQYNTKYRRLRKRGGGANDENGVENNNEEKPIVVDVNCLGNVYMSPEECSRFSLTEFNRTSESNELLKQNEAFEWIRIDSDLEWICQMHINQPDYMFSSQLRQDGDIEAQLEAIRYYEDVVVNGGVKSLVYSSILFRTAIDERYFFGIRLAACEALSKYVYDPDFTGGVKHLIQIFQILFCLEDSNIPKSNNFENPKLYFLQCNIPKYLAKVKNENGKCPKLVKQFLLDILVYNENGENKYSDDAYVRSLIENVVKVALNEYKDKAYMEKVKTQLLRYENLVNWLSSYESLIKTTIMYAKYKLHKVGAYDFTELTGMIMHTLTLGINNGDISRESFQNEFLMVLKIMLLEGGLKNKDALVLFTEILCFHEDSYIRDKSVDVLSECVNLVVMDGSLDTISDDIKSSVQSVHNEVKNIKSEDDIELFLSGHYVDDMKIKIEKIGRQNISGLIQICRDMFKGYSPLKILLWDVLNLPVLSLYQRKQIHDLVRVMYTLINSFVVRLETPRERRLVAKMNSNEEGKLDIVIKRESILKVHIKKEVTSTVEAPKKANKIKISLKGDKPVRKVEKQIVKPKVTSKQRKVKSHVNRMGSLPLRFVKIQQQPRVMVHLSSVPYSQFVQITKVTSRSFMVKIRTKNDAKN

601 Widom DNA 147 bp
binding signal (fold tighter than Taf14FL) [1]: > 6 | binding signal (fold tighter than Taf14FL) [2]: > 6

Taf14ET (ET domain of Taf14, aa 168–243) (from UniProt P35189 168-243) (domain or fragment)
Kd [3]: 1.6 µM

Taf14_(Linker) peptide (aa 145–169 of Taf14) (from UniProt P35189 145-169)
Kd [4]: 640 µM

ARTKQTARKSTGGKAPRKQ (peptide, UniProt P61830 2-20, looked up, crotonyl-lysine at 9, the NMR methods list only H3K9cr_(5-13)) [H3K9cr_(1-19) peptide]
binding result [5]: binds

B1: Taf2CT peptide (aa 1392–1402 of Taf2) (peptide, UniProt P23255 1392-1402, looked up)
peptide: SRSFMVKIRTK
notes: Taf2, subunit of yeast TFIID, C-terminal hxhKh motif-containing tail, aa 1392–1402; also called Taf2 peptide; C-terminal tail of Taf2; source: synthetic peptide (Synpeptide)
Kd [6]: 0.7 µM | Kd [7]: 6 µM

B2: H3K9cr_(5-13) peptide (residues 5–13 of H3) (peptide, UniProt P61830 6-14, looked up)
peptide: QTARK(Crotonyl(E))STGG
notes: also called H3K9cr peptide; source: synthetic peptide (Synpeptide)
binding result [8]: binds

B3: 37 bp non-specific dsDNA (dsDNA)
DNA 1: CGTGTCAGATATATACATCCGATATCAGATCTCGTCA
DNA 2: TTGACGAGATCTGATATCGGATGTATATATCTGACACG
binding result [9]: binds | binding result [10]: binds
